According to patent US20200216522A1 (DENALI THERAPEUTICS, published 2020):

Molecular target: T1, cynomolgus monkey Tau (cynomolgus monkey, UniProt P57786 2-459 (rhesus entry))
T1 construct: also called cyno Tau; cyno-Tau
Experiment: ELISA, hybridoma antibody
Procedure: Primary screening was performed by coating 96-well ELISA Nunc plates overnight at 4° C. with 1 μg/mL r-Tau in PBS. The plates were washed three times with PBST using a Biotek plate washer. 50 µL/well of hybridoma supernatants were added to the plates with incubation at room temperature for 1 hour. Plates were washed three times with PBST. A secondary detection antibody goat X m HRP (Southern Biotech) at 1:2000 dilution, 50 μL/well was added to the plate and incubated for 1 hour at room temperature. At the end of an hour, plates were washed three time with PBST. Plates were developed with 50 μL/well of TMB substrate (Thermo Fisher) and quenched with 50 μL/well of 1N sulfuric acid. The signal was quantified on a BioTek® plate reader at A450. Wells with an OD three times the background for r-Tau were considered positive and carried forward for secondary screening.
Positives from primary screening were carried forward into the secondary screening where they were screened by ELISA using the above protocol on r-Tau, p-Tau, and cyno-Tau for binding and cross-reactivity. Further characterization on the five different Tau isoforms was performed by the same method.

T1 sequence (P57786 other isoform, or with tags, fused parts or gaps limits assumed): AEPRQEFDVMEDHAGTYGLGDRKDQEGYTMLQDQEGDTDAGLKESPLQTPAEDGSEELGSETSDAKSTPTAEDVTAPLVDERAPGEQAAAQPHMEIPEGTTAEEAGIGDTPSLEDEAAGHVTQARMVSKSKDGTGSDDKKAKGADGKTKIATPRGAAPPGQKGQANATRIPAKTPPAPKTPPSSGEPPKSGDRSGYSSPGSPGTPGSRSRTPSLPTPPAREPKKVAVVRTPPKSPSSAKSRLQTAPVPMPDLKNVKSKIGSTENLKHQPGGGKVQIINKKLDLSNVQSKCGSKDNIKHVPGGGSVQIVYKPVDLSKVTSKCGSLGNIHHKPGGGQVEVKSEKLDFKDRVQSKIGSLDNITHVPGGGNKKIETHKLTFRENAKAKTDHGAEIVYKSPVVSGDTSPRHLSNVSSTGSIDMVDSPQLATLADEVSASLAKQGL

B1: murine anti-Tau hybridoma antibody 17G2.A1 (antibody, V domains shown)
VH: QVQLQQPGAELVGPGSSVKLSCKASGYTFINYWIDWMKQSPGQGLEWIGNIYPSDSESHYNQKFTDKATLTVDISSSTAYLQLSSLTSEDSAVYYCALYSKGYWGQGTSVTVSS
VL: DVLMTQTPLSLPVTLGDQASISCRSSQNIVHTNGNTYLEWYLQKPGQSPKLLIYKLSSRFSGVPDRFSGSGSGTDFTLKISRVEAEDLGVYYCFQGSHLPFTFGGGTKLEIKR
notes: mouse IgG from hybridoma; also called anti-Tau 17G2.A1
B1: binds.
